Assay [1] addresses FUS^N-FusionRed-Cry2olig-VioE. The assay is described as follows: cell-based or functional assay.
The next assay deals with FUS^N-Citrine-PixE-VioE. As to the kind of experiment: cell-based or functional assay.

Chain of FUS^N-FusionRed-Cry2olig-VioE (Q96524 other isoform, or with tags, fused parts or gaps): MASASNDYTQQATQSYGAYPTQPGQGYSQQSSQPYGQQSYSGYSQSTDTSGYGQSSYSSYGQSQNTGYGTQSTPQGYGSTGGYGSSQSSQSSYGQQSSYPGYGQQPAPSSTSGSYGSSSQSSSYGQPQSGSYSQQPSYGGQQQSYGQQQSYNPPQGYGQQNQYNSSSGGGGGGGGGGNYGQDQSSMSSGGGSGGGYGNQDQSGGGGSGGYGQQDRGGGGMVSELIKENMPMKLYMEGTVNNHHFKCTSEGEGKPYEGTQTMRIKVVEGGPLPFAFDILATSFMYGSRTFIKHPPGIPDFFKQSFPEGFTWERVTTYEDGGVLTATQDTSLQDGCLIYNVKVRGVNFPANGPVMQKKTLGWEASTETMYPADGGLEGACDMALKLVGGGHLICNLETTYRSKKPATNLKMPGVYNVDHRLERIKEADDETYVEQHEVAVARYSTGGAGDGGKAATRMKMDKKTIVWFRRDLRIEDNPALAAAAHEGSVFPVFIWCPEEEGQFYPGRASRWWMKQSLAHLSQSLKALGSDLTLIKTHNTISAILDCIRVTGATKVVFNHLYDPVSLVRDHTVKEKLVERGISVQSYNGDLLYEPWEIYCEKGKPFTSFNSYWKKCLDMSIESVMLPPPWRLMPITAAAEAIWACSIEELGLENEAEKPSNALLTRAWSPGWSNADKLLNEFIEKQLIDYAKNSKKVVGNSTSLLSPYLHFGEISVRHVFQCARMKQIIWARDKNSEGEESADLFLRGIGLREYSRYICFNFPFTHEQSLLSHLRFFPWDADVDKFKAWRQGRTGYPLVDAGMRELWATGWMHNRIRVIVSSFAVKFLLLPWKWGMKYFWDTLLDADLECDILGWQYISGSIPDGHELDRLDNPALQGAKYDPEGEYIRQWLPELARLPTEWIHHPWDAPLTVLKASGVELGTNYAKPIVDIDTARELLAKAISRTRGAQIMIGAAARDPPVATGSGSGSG
Chain of VioC-FUS^N-Citrine-Cry2olig (Q9S3U9 1-429, tags or fused parts left off): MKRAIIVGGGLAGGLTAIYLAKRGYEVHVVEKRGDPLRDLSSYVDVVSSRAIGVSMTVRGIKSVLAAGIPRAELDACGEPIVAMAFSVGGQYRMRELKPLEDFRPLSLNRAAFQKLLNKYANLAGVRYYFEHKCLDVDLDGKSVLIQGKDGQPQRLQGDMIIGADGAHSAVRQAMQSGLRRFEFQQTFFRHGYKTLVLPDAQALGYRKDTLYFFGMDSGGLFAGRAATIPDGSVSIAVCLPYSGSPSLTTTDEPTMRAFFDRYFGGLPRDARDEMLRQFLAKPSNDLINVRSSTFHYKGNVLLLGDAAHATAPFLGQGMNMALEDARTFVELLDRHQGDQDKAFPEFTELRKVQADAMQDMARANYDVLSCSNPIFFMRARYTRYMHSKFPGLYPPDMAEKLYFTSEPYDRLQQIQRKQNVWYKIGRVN
Chain of FUS^N-Citrine-Cry2olig-VioC (P35637 1-214, tags or fused parts left off): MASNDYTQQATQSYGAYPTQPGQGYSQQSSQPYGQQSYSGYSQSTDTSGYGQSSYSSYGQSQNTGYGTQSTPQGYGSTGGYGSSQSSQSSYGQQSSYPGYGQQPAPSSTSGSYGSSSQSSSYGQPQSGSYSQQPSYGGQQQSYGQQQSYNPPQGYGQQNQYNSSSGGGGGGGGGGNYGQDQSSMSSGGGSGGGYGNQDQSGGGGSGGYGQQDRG

On to “FUS^N-Citrine-Cry2olig-VioC (from UniProt P35637 1-214; Q96524 1-498; Q9S3U9 1-429)”, for which the deoxyviolacein production under continuous blue light relative to dark (HPLC, strain YNS34) in assay [1] is 2 fold.

“FUS^N-FusionRed-PixD-VioC (from UniProt Q9S3U9 1-429)”: in the assay with FUS^N-Citrine-PixE-VioE, the change in deoxyviolacein production from light to dark (HPLC, strain YEZ257, [Zeo]max 1,200 mg/L) was determined as 6.1 fold and the change in deoxyviolacein-to-PDV ratio from light to dark (HPLC, strain YEZ257, [Zeo]max 1,200 mg/L) was 18.4 fold. “VioC-FUS^N-Citrine-Cry2olig (from UniProt Q9S3U9 1-429; P35637 1-214; Q96524 1-498)”: in assay [1], the deoxyviolacein production under continuous blue light relative to dark (HPLC, strain YNS36) was determined as 2 fold.

Values taken from patent US20210062165A1.
